# Test results published in paper doi:10.1101/823146 (bioRxiv, 2019).
# B1: 6xHis-tagged RcsF, P69411 16-134 (natural protein)
# chain: CSMLSRSPVEPVQSTAPQPKAEPAKPKAPRATPVRIYTNAEELVGKPFRDLGEVSGDSCQASNQDSPPSIPTARKRMQINASKMKANAVLLHSCEVTSGTPGCYRQAVCIGSALNITAK
# modifications: here or on the partner: biotin (EZ-Link NHS-PEG4-biotin) where BamA was immobilised on streptavidin tips
# B2: RcsF (overexpressed from pSC216) (natural protein)
# chain: B1 chain
# modifications: lipid anchor (outer membrane lipoprotein)
# Key:
# [1] = biological target: 6xHis-tagged RcsF (E. coli) (UniProt P69411); experiment: BLI
# [2] = biological target: Untagged BamA (biolayer interferometry) (E. coli), P0A940; experiment: BLI; details: remark: other sources report otherwise
# BamABDE complex = BamABDE complex (E. coli, UniProt P0A940;P77774;P0AC02;P0A937); experiment: native gel or EMSA
# BamACDE complex = BamACDE complex (E. coli, UniProt P0A940;P0A903;P0AC02;P0A937); experiment: native gel or EMSA
# [3] = biological target: BamABCDE holocomplex (BAM) (E. coli, UniProt P0A940;P77774;P0A903;P0AC02;P0A937); experiment: native gel or EMSA
# BamABCDE holocomplex (BAM), sequence (P77774 20-392, chain 2 of 4): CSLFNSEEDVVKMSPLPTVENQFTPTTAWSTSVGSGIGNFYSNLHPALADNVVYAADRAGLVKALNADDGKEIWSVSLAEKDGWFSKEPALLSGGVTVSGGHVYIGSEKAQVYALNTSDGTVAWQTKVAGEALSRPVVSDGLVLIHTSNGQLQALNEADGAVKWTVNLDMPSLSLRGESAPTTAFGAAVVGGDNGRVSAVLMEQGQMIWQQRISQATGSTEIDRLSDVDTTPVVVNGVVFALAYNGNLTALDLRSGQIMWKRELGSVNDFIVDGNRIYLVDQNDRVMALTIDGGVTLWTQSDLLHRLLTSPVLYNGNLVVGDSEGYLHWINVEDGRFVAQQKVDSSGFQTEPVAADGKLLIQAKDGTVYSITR
# BamABCDE holocomplex (BAM), sequence (P0A903 25-344, chain 3 of 4): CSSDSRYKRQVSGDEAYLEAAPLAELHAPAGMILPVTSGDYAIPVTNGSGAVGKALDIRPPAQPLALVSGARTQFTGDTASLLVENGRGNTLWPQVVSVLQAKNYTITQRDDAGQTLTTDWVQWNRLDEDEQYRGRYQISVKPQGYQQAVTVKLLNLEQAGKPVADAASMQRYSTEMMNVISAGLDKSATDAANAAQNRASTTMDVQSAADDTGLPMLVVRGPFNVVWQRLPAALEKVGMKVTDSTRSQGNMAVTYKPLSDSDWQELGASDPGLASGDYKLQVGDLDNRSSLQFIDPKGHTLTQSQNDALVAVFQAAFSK
# BamABCDE holocomplex (BAM), sequence (P0AC02 20-245, chain 4 of 4): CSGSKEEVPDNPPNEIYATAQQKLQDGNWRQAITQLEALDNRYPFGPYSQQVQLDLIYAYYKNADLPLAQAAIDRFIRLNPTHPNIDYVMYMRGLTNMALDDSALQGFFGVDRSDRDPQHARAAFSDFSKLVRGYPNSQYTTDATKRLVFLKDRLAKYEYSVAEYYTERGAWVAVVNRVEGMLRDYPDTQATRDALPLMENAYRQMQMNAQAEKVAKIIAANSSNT
# BamABCDE holocomplex (BAM), sequence (P0A937 20-113, chain 5 of 4): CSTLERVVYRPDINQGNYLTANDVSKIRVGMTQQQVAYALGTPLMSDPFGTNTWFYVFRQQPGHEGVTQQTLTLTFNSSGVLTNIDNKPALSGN
# BamACDE complex, sequence (P0A903 25-344, chain 2 of 3): as the sequence (P0A903 25-344, chain 3 of 4) above
# BamACDE complex, sequence (P0AC02 20-245, chain 3 of 3): as the sequence (P0AC02 20-245, chain 4 of 4) above
# BamACDE complex, sequence (P0A937 20-113, chain 4 of 3): as the sequence (P0A937 20-113, chain 5 of 4) above
# BamABDE complex, sequence (P77774 20-392, chain 2 of 3): as the sequence (P77774 20-392, chain 2 of 4) above
# BamABDE complex, sequence (P0AC02 20-245, chain 3 of 3): as the sequence (P0AC02 20-245, chain 4 of 4) above
# BamABDE complex, sequence (P0A937 20-113, chain 4 of 3): as the sequence (P0A937 20-113, chain 5 of 4) above
molecule,measurement,setting,value
Untagged BamA (biolayer interferometry) (from UniProt P0A940 21-810) (natural protein; other documents disagree on this pair),Kd,[1],420 nM
B1,Kd,[2],350 nM
B2,binding result,BamABDE complex,binds
same,binding result,BamACDE complex,binds
same,binding result,[3],binds
